From PMC10629583, “Specific inhibition of an anticancer target, polo-like kinase 1, by allosterically dismantling its mechanism of substrate recognition” (Proceedings of the National Academy of Sciences of the …, 2023)
[ ]: non-standard residue; d: D form. The star is where a group is joined. FITC = O=C1OC2(c3ccc(O)cc3Oc3cc(O)ccc32)c2ccc(NC(=S)*)cc21; pT = C[C@@H](OP(=O)(O)O)[C@H](N)C(=O)O; Ahx = NCCCCCC(=O)O

Key:
Details in all cases: both partners purified
[1] = target: T1, Plk1 polo-box domain, PBD1 (residues 345–603) WT (human, UniProt P53350 345-603); assay: fluorescence polarisation; direct binding: FITC-Ahx-DPPLHSpTAI-NH2 with different concentrations of recombinant PBD1 WT or mutants
T1 construct: Polo-like kinase 1 (Plk1), polo-box domain, residues 345-603; TEV-PBD1 fragment in pET-Duet-1; A TEV site precedes PBD1 in the insert; also called PBD1 WT; Plk1 PBD; source: E. coli (purified as described for the crystallography construct, Rosetta strain)

[2] = target: T2, PBD1 (residues 345–603) F559K (human, UniProt P53350 345-603, F559K); assay: fluorescence polarisation; inhibition assay: FITC-conjugated ligand (15 nM) mixed with PBD at its EC85 concentration, competitor varied; read about 30 min after reaction, 384-well format
T2 construct: Polo-like kinase 1 (Plk1), polo-box domain, residues 345-603, F559K; also called F559K mutant; source: E. coli (purified as described for the crystallography construct, Rosetta strain)

[3] = target: T3, PBD1 (residues 345–603) F559D (human, UniProt P53350 345-603, F559D); assay: as above
T3 construct: Polo-like kinase 1 (Plk1), polo-box domain, residues 345-603, F559D; also called F559D mutant protein; source: E. coli (purified as described for the crystallography construct, Rosetta strain)

[4] = target: T4, PBD1 (residues 345–603) F559E (human, UniProt P53350 345-603, F559E); assay: as above
T4 construct: Polo-like kinase 1 (Plk1), polo-box domain, residues 345-603, F559E; also called F559E mutant; source: E. coli (purified as described for the crystallography construct, Rosetta strain)

[5] = target: T5, PBD1 (residues 345–603) F559R (human, UniProt P53350 345-603, F559R); assay: as above
T5 construct: Polo-like kinase 1 (Plk1), polo-box domain, residues 345-603, F559R; also called F559R mutant; source: E. coli (purified as described for the crystallography construct, Rosetta strain)

Measured: binding result

T2 sequence (P53350 345-603 F559K): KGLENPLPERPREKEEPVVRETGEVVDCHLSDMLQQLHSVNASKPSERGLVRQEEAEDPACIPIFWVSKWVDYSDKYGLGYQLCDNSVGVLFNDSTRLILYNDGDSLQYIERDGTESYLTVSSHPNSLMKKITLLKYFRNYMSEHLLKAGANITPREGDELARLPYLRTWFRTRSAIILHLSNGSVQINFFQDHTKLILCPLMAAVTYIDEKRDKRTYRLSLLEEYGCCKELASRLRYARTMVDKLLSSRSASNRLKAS
T3 sequence (P53350 345-603 F559D): as the sequence (P53350 345-603 F559K) above, with K215D counted along it
T1 sequence (P53350 345-603): as the sequence (P53350 345-603 F559K) above, with K215F counted along it
T5 sequence (P53350 345-603 F559R): as the sequence (P53350 345-603 F559K) above, with K215R counted along it
T4 sequence (P53350 345-603 F559E): as the sequence (P53350 345-603 F559K) above, with K215E counted along it

B1: FITC-Ahx-DPPLHSpTAI-NH2 (peptide)
peptide: {FITC-Ahx}-DPPLHS[pT]AI-NH2
SMILES: CC[C@H](C)[C@H](NC(=O)[C@H](C)NC(=O)[C@@H](NC(=O)[C@H](CO)NC(=O)[C@H](Cc1c[nH]cn1)NC(=O)[C@H](CC(C)C)NC(=O)[C@@H]1CCCN1C(=O)[C@@H]1CCCN1C(=O)[C@H](CC(=O)O)NC(=O)CCCCCNC(=S)Nc1ccc2c(c1)C(=O)OC21c2ccc(O)cc2Oc2cc(O)ccc21)[C@@H](C)OP(=O)(O)O)C(N)=O
notes: also called FITC-conjugated phosphopeptide; FITC-conjugated ligand
binds: all assays above
